Measured values reported in the supplement of paper PMC10126150.
± gives the standard deviation of the averaged measurements.

System: ATP
Assay: switch fluorescence ratio, 500 uM ATP over buffer (Cy3 cluster intensity, sum of 5 cycles each) (fold (ratio)); higher = stronger signal-on switching upon ATP binding; sequences stand for … in TCGTCGGCAGCGTCAGATGTGTATAAGAGACAGTTTTTTTTTTTTTTTTTTTTTTTTT…TC
Details: aptamer strand: ATP DNA aptamer (quencher-CACCTGGGGGAGTATTGCGGAGGAAGG + anchor), 100 nM annealed; ATP concentration: 500 uM
Method in brief: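 The fluorescence ratio divides summed target-cycle Cy3 intensity by summed buffer-cycle Cy3 intensity for each cluster and is averaged per switch-domain sequence. Cy3-labelled switching-strand clusters on a modified Illumina MiSeq flow-cell were annealed to 100 nM quencher-labelled ATP aptamer, then imaged in selection buffer and again after 15 min with 500 uM ATP at 22 °C. Five such cycles were run, with NaOH stripping and re-annealing between them, and clusters outside 100-1000 RFU were excluded.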
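Also: ATP exposure 15 min at 22 °C before imaging.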

Sequence | switch fluorescence ratio
AAAGAGGGT | 0.986 ± 0.018
CTATAAGGGG | 0.999 ± 0.026
AGGGTCTCCG | 1 ± 0.062
TTTTTGATCG | 0.997 ± 0.039
TTGCCGTTCA | 1.02 ± 0.013
TTATTGGTGG | 0.966 ± 0.04
GGATGTGAAG | 0.9818 ± 0.0027
TTCCGAGGG | 1.102 ± 0.011
TAAGGGGTCG | 1.03 ± 0.046
GTGTGCCGGG | 0.97 ± 0.0043
GGGCTTGTGC | 0.987 ± 0.071
TTGAGGGCGG | 1.005 ± 0.0098
AATTGTACGG | 1.04 ± 0.013
TGGGTGAAAG | 1.02 ± 0.02
TTCGATTTAT | 1.03 ± 0.024
ACGGGGAAAG | 0.9916 ± 0.0019
ATCGTTACGA | 1.02 ± 0.026
GGTAGCCGGT | 1.01 ± 0.041
GCCGAAGTTA | 1.12 ± 0.042
AGTGGTTCG | 1 ± 0.018
TCAACGAAGA | 1.01 ± 0.018
CTGGTGCATT | 1.21 ± 0.11
GGGCGAATGG | 1.02 ± 0.029
AGAATGGTCG | 1.03 ± 0.03
TCATGGCGTG | 0.988 ± 0.011
TTGTTTTCGT | 1.01 ± 0.039

Sequence | switch fluorescence ratio
TCGTACGTTG | 1.01 ± 0.022
GCCCCCTTGG | 2.02 ± 0.026
GGTTCGAAGG | 0.95 ± 0.032
AGGTGCGGGG | 1.01 ± 0.042
CATGTGTTTT | 0.9744 ± 0.0041
AAAGTCCATA | 1.01 ± 0.026
TGGTAGGTGA | 0.997 ± 0.025
CAAAGCGCGG | 0.997 ± 0.055
TTGGCGCGCA | 1.023 ± 0.0016
GGGTCGAGGG | 0.986 ± 0.027
TAGAGGCGGG | 0.981 ± 0.025
TTGGCCATCG | 0.954 ± 0.039
GCCGAGGGGT | 1.037 ± 0.008
GACATTTGCA | 1.03 ± 0.023
AGGGGACAAA | 1 ± 0.035
CAGGCTTGTA | 1.004 ± 0.0098
TAGGGTCATA | 1.04 ± 0.077
GGGGTTCGAA | 0.963 ± 0.016
GCTATTTTCG | 0.99 ± 0.023
AATTGCTTTC | 1.06 ± 0.013
TGCAATGTTT | 1.38 ± 0.52
ATTGGGATT | 0.966 ± 0.046
GTGTTAACGG | 0.982 ± 0.017
GTGTTATAGT | 0.993 ± 0.024
GTTATGAGTC | 1.02 ± 0.03
TTTTCGATGT | 0.994 ± 0.042

Sequence | switch fluorescence ratio
CGTATGAGGG | 0.9679 ± 0.0066
TTATGGGTCG | 0.99 ± 0.034
TGAGGGTTTG | 1.02 ± 0.044
GGGTACTGGT | 1 ± 0.026
AAATAAAGGG | 0.987 ± 0.032
GTAGGGGAGC | 0.977 ± 0.06
TGTTTCATGC | 1.07 ± 0.16
AGTGGGTGCT | 1.02 ± 0.039
GCTTATTCGG | 0.959 ± 0.03
TGGTGGAAAA | 0.973 ± 0.02
TTGGACCATG | 1.01 ± 0.038
TCGAATTCGC | 1.0071 ± 8.5e-05
TGTTGAGCAA | 1.6 ± 0.013
TATGGTAGGC | 0.9857 ± 0.0042
GACTGGGGG | 1.0292 ± 0.00087
ATTCGCTTTT | 1 ± 0.042
ATATTTGCGA | 0.973 ± 0.022
GGGTTGGTGT | 0.978 ± 0.015
TCGTAACTGT | 1.03 ± 0.016
AGCTCGGGGG | 1 ± 0.034
ATTCCTGGGC | 1.03 ± 0.027
GCCTAACGCG | 1.03 ± 0.018
TCACAGGATA | 1.021 ± 0.0056
CAGGGAGCTG | 1.01 ± 0.027
GGGTGCAGGG | 0.9932 ± 0.0059
AGGTTTTAGT | 1.013 ± 0.005

Sequence | switch fluorescence ratio
GGTGGTTGCA | 1 ± 0.024
AGGGGCGGAG | 0.9743 ± 0.0035
TCCGGCAAGT | 2.17 ± 0.13
AACTTTGGGG | 1.01 ± 0.068
CATGTGGTGG | 0.998 ± 0.039
TCTGGCTATT | 1.01 ± 0.02
TTGCCGGTAT | 1.05 ± 0.021
GTTTCGCGGT | 1.04 ± 0.067
CGTGGGATTG | 1.012 ± 0.004
CAGTTTGTTC | 0.987 ± 0.022
AGTGCAAAAG | 1.06 ± 0.029
ATAGTACGTG | 1.01 ± 0.024
AATGGTCATG | 0.993 ± 0.075
TTCGTCGCTG | 0.999 ± 0.037
CGCTGGAACT | 1.0166 ± 0.00022
ATTAGGTCGG | 0.979 ± 0.023
GATGGAGTTA | 1.01 ± 0.047
AGGGGACTGT | 1.01 ± 0.047
GGCCTTGTCG | 1.06 ± 0.046
TGCGTTATCG | 1.025 ± 0.0072
AGAATTTGCG | 0.974 ± 0.018
TTTATGAGAT | 1 ± 0.027
TTTAGGGACG | 0.955 ± 0.14
GGGTGCTGCG | 1.01 ± 0.037
GAATTTAGGT | 0.996 ± 0.028
TGATTTCTTT | 0.997 ± 0.0018

Sequence | switch fluorescence ratio
AAGGCAAAAT | 1.04 ± 0.029
GCTCGTTTAG | 1.01 ± 0.02
ACTTTCTGAC | 1.22 ± 0.24
AGGAGGGGCG | 0.983 ± 0.0099
CGAATTAGTT | 0.978 ± 0.045
CGGGGGGGCC | 0.99 ± 0.042
TGAATTCTTG | 1 ± 0.034
TAAATATTAG | 0.9837 ± 0.0031
TAAGTTTTGG | 0.974 ± 0.017
CGGAACAATG | 1.3945 ± 0.00059
TTCATGCTTT | 0.9882 ± 0.0097
CGGAGGGAAT | 2.91 ± 2.3
TAATGTTACT | 1.04 ± 0.039
AGGGTGAGGT | 0.993 ± 0.022
TTTTTTCTCT | 0.994 ± 0.02
GGGCCCGGCG | 0.973 ± 0.049
ATAGTTCAGC | 0.9822 ± 0.0058
ACCGTTACTT | 1.24 ± 0.065
ATTGCCGTCA | 0.998 ± 0.024
AAACAGTATA | 1.03 ± 0.027
AAGGTTAGTA | 0.9924 ± 0.007
GGTAACGTGA | 1.01 ± 0.023
TTCCGGGTG | 3.14 ± 0.75
CTTCTTTTCA | 1.1 ± 0.064
CGCGTGGGGC | 1.06 ± 0.015
ATGGGCTAGG | 0.9702 ± 0.0058

Sequence | switch fluorescence ratio
GCAAGATTCA | 1 ± 0.021
AGGGATATTT | 1.01 ± 0.033
TGGGGATCTG | 0.985 ± 0.03
GGCCCGGACT | 1.04 ± 0.013
TTAAGCTAGG | 1.004 ± 0.0054
CTCGGCTGCG | 0.969 ± 0.084
AGTATCATGT | 1.02 ± 0.063
AATGGGTTGT | 1.02 ± 0.032
TGTCGGATTT | 1.13 ± 0.24
GGTCATGGTG | 1.08 ± 0.024
TGCTGACGGT | 0.993 ± 0.029
TATGAGTGAC | 1.02 ± 0.016
ACATTTTTGC | 0.9897 ± 0.0011
TTAGGATAGG | 1.005 ± 0.0021
GCTTCGGGTT | 0.976 ± 0.028
CTGTTACTGC | 1 ± 0.031
GGTTGTGGCT | 0.9883 ± 0.0059
GCATTCGCCT | 1.08 ± 0.035
TTACGTTAAT | 1.18 ± 0.095
AGGAGCGGGG | 1 ± 0.1
AGGATCGGAT | 1.04 ± 0.003
GCTCCTTAGG | 1.12 ± 0.048
TTTTTGGCTC | 1.01 ± 0.019
